IntAct's records for PubMed 25764370

B1: Structural maintenance of chromosomes protein 5 (Saccharomyces cerevisiae), Q08204 (parent)
chain: MTSLIDLGRYVERTHHGEDTEPRSKRVKIAKPDLSSFQPGSIIKIRLQDFVTYTLTEFNLSPSLNMIIGPNGSGKSTFVCAVCLGLAGKPEYIGRSKKVEDFIKNGQDVSKIEITLKNSPNVTDIEYIDARDETIKITRIITRSKRRSDYLINDYQVSESVVKTLVAQLNIQLDNLCQFLSQERVEEFARLKSVKLLVETIRSIDASLLDVLDELRELQGNEQSLQKDLDFKKAKIVHLRQESDKLRKSVESLRDFQNKKGEIELHSQLLPYVKVKDHKEKLNIYKEEYERAKANLRAILKDKKPFANTKKTLENQVEELTEKCSLKTDEFLKAKEKINEIFEKLNTIRDEVIKKKNQNEYYRGRTKKLQATIISTKEDFLRSQEILAQTHLPEKSVFEDIDIKRKEIINKEGEIRDLISEIDAKANAINHEMRSIQRQAESKTKSLTTTDKIGILNQDQDLKEVRDAVLMVREHPEMKDKILEPPIMTVSAINAQFAAYLAQCVDYNTSKALTVVDSDSYKLFANPILDKFKVNLRELSSADTTPPVPAETVRDLGFEGYLSDFITGDKRVMKMLCQTSKIHTIPVSRRELTPAQIKKLITPRPNGKILFKRIIHGNRLVDIKQSAYGSKQVFPTDVSIKQTNFYQGSIMSNEQKIRIENEIINLKNEYNDRKSTLDALSNQKSGYRHELSELASKNDDINREAHQLNEIRKKYTMRKSTIETLREKLDQLKREARKDVSQKIKDIDDQIQQLLLKQRHLLSKMASSMKSLKNCQKELISTQILQFEAQNMDVSMNDVIGFFNEREADLKSQYEDKKKFVKEMRDTPEFQSWMREIRSYDQDTKEKLNKVAEKYEEEGNFNLSFVQDVLDKLESEIAMVNHDESAVTILDQVTAELRELEHTVPQQSKDLETIKAKLKEDHAVLEPKLDDIVSKISARFARLFNNVGSAGAVRLEKPKDYAEWKIEIMVKFRDNAPLKKLDSHTQSGGERAVSTVLYMIALQEFTSAPFRVVDEINQGMDSRNERIVHKAMVENACAENTSQYFLITPKLLTGLHYHEKMRIHCVMAGSWIPNPSEDPKMIHFGETSNYSFD
partner: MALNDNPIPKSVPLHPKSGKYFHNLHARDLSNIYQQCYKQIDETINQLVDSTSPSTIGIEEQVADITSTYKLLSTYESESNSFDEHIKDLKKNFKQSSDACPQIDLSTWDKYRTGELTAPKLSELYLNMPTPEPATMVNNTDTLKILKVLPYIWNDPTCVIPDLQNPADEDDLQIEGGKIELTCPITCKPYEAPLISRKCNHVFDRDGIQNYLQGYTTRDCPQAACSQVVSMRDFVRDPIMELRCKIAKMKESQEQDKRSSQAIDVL
B2: Structural maintenance of chromosomes protein 5 (Saccharomyces cerevisiae), Q08204 (parent)
chain: B1 chain

Variants of: B1
Details: with nse2_yeast MMS21, P38632

Variant	effect of a mutation on the interaction
I780R;I784R;F787A;N791A	disrupting interaction strength
Q752A;L755A;L762A	decreasing interaction strength

Variants of: B2
Details: with smt3_yeast SMT3, Q12306
Sequence of smt3_yeast SMT3, Q12306 (Q12306 whole entry): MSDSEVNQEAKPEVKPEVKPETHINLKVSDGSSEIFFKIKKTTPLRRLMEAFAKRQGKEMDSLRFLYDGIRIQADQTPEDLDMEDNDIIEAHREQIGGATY

Variant	effect of a mutation on the interaction
M769A;K773A	decreasing interaction strength
I780R;I784R;F787A;N791A	disrupting interaction strength
Q752A;L755A;L762A	decreasing interaction strength
